Test results published in patent publication US7943337B2, “Method for screening a protease” (Asahi Kasei Pharma Corporation, priority 2003, dated 2011).

Assays:
Type in all cases: biochemical
[1] = Screening of protease (pH 3.5), control solution without substrate; conditions: pH 3.5, no substrate; 550 nm, reference 595 nm
Protocol: (§1) A screening method is shown in which a protease that cleaves a glycated peptide from N-terminal-glycated pentapeptide of a hemoglobin β-chain without substantially cleaving a glycated amino acid or glycated peptide from N-terminal-glycated pentapeptide of a hemoglobin α-chain. Each 10 μl of a sample for screening was placed in 3 wells of a 96-well plate, respectively. Then, the first well was supplemented with 50 μl of an α-solution, the second well was supplemented with 50 μl of a β-solution, and the third well was supplemented with 50 μl of a control solution. After the plate was incubated at 37° C. for 60 minutes, 50 μl of pH-regulating solution and 50 μl of a developing solution were added, and the whole was left at room temperature for 30 minutes. Then, the absorbance at a measuring wavelength of 550 nm and a reference wavelength of 595 nm were determined using a Microplate Reader (model 550, manufactured by Bio-Rad), to select a sample having a difference in the absorbance between the β-solution-supplemented well and the control solution-supplemented well larger than a difference in the absorbance between the α-solution-supplemented well and the control solution-supplemented well. Thus the protease of object was screened. The samples to be used include: carboxypeptidase B (manufactured by Sigma-Aldrich Corp.); carboxypeptidase W (manufactured by Wako Pure Chemical Industries, Ltd.); carboxypeptidase Y (manufactured by Oriental Yeast Co., Ltd.); protease (type XXVII nagase: manufactured by Sigma-Aldrich Corp.); protease (type VIII Subtilisin Carlsberg: manufactured by Sigma-Aldrich Corp.); protease (type XXIV Bacterial: manufactured by Sigma-Aldrich Corp.); Proteinase K (manufactured by Wako Pure Chemical Industries, Ltd.); neutral proteinase (manufactured by Toyobo Co., Ltd.); and distilled water. To confirm a degree of color development caused by a developing solution, 10 μl of 1 mM FVH (manufactured by Peptide Institute Inc.) and 1 mM FVL (manufactured by Peptide Institute Inc.) were placed in a well severally, followed by adding 50 μl of the control solution. The whole was incubated at 37° C. for 60 minutes. Then, 50 μl of a pH-regulating solution and 50 μl of the developing solution were added and the whole was left at room temperature for 30 minutes, followed by the determination in a similar manner as described above.
(§2) 50 mM Acetate-sodium acetate (pH3.5)
(§3) 0.09% 4-aminoantipyrine (manufactured by Wako Pure Chemical Industries, Ltd.)
(§4) 0.06% TODB (manufactured by Dojindo Laboratories)
(§5) 15 U/ml Peroxidase (manufactured by Sigma-Aldrich Corp.)

[2] = Screening of protease for hemoglobin A1c determination (pH 3.5); conditions: pH 3.5, 37° C. 60 minutes; 550 nm, reference 595 nm; FOD923 developing solution
Protocol: as §1, §2
(§6) 0.2 mM β-Glycated pentapeptide (manufactured by Peptide Institute Inc.)
as §3, §4, §5

[3] = Screening of protease for hemoglobin A1c determination (pH 7.5); conditions: pH 7.5, 37° C. 60 minutes; 550 nm, reference 595 nm; FOD923 developing solution
Protocol: as §1, with “μl of distilled water and 50” for “μl of pH-regulating solution and 50”, “Co., Ltd.); carboxypeptidase A (manufactured by Wako Pure Chemical Industries, Ltd.); thermolysin (manufactured by Wako Pure Chemical Industries, Ltd.); and distilled” for “Co., Ltd.); and distilled”, “μl of distilled water and 50” for “μl of a pH-regulating solution and 50”
as §6
(§7) 0.09% 4-Aminoantipyrine (manufactured by Wako Pure Chemical Industries, Ltd.)
as §4, §5
(§8) Various bacteria were cultured with shaking in Difco Lactobacilli MRS Broth (manufactured by Becton, Dickinson and Company), a MM medium (2.5% mannose, 2.5% beer yeast extract, pH7.0), and a YPG medium (2% glucose, 1% polypeptone, 2% yeast extract, 0.1% potassium dihydrogen phosphate, 0.05% magnesium sulfate heptahydrate, pH 7.0) at a temperature of from 28 to 30° C. for 1 to 7 days. Then, cells were removed by centrifugation from the culture solutions to obtain culture supernatants. A sample was prepared by diluting the obtained culture supernatants 10-fold with a 10 mM potassium phosphate buffer (pH7.5), and the determination was performed in a similar manner as Example 1.

[4] = Screening of protease for hemoglobin A1c determination (pH 3.5); conditions: pH 3.5, 37° C. 60 minutes; 550 nm, reference 595 nm; FOD923 developing solution; remark: listed apart in the source
Protocol: as §1, §2
(§9) 0.2 mM α-Glycated pentapeptide (manufactured by Peptide Institute Inc.)
as §3, §4, §5

[5] = Screening of protease (pH 7.5), control solution without substrate; conditions: pH 7.5, no substrate; 550 nm, reference 595 nm
Protocol: as §1, with “μl of distilled water and 50” for “μl of pH-regulating solution and 50”, “Co., Ltd.); carboxypeptidase A (manufactured by Wako Pure Chemical Industries, Ltd.); thermolysin (manufactured by Wako Pure Chemical Industries, Ltd.); and distilled” for “Co., Ltd.); and distilled”, “μl of distilled water and 50” for “μl of a pH-regulating solution and 50”
as §7, §4, §5, §8

[6] = Screening of protease for hemoglobin A1c determination (pH 7.5); conditions: pH 7.5, 37° C. 60 minutes; 550 nm, reference 595 nm; FOD923 developing solution; remark: listed apart in the source
Protocol: as §1, with “μl of distilled water and 50” for “μl of pH-regulating solution and 50”, “Co., Ltd.); carboxypeptidase A (manufactured by Wako Pure Chemical Industries, Ltd.); thermolysin (manufactured by Wako Pure Chemical Industries, Ltd.); and distilled” for “Co., Ltd.); and distilled”, “μl of distilled water and 50” for “μl of a pH-regulating solution and 50”
as §9, §7, §4, §5, §8

B1: protease type XXVII: protease (type XXVII nagase: manufactured by Sigma-Aldrich Corp.) (protein, UniProt P00782 108-382, looked up)
Subtilisin BPN': AQSVPYGVSQIKAPALHSQGYTGSNVKVAVIDSGIDSSHPDLKVAGGASMVPSETNPFQDNNSHGTHVAGTVAALNNSIGVLGVAPSASLYAVKVLGADGSGQYSWIINGIEWAIANNMDVINMSLGGPSGSAALKAAVDKAVASGVVVVAAAGNEGTSGSSSTVGYPGKYPSVIAVGAVDSSNQRASFSSVGPELDVMAPGVSIQSTLPGNKYGAYNGTSMASPHVAGAAALILSKHPNWTNTQVRSSLENTTTKLGDSFYYGKGLINVQAAAQ
control solution (absorbance, RAW DATA) [1]: 0.019
β-Solution (absorbance, RAW DATA) [2]: 0.021
β-Solution (absorbance, RAW DATA) [3]: 0.031
α-Solution (absorbance, RAW DATA) [4]: 0.025
control solution (absorbance, RAW DATA) [5]: 0.016
α-Solution (absorbance, RAW DATA) [6]: 0.021
